One may read the Km as the substrate concentration at which the rate is half of its maximum. In general, Vmax refers to the top rate of the reaction or transport when substrate is in excess. In general, kcat refers to the maximal rate divided by the concentration of active sites. The kcat/Km is the second-order rate constant that governs catalysis at low substrate concentration.

Holding throughout (format): biochemical, Clostridium acetobutylicum ATCC824
For data set [1], the target named is T1, Clostridium acetobutylicum glycerol kinase GlpK wt (glpK, CA_C1321, Uniprot Q97JG4), SEQ ID NO: 1 (Clostridium acetobutylicum, UniProt Q97JG4).
T1 construct: GlpK wt; Q97JG4; made in house; host or cells: E. coli BL21(DE3) star
T1 sequence (Q97JG4 1-498): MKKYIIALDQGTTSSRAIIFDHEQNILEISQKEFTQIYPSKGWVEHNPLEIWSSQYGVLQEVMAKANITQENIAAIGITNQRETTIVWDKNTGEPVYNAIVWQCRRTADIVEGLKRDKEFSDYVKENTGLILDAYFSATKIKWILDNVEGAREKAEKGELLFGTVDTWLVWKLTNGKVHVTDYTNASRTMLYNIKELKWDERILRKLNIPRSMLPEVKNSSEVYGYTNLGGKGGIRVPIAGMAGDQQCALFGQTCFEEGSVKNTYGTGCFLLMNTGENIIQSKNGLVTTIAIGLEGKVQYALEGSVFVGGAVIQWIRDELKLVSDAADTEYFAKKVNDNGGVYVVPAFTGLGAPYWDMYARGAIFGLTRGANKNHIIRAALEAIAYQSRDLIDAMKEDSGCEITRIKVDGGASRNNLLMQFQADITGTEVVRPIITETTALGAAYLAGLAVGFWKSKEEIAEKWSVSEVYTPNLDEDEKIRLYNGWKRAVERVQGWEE
The data set can be described thus: Glycerol kinase activity towards glycerol (ADP appearance coupled to NADH oxidation), wild type. To be noted: pH 9, 30° C., 2 mM ATP, 0.01-50 mM glycerol. The source says: (§1) Three different point mutations were identified in glpK gene in the clone PD0557Vc05 leading to the mutant protein GlpK* with H22Y, A347T and V466M (table 2 above). In order to better characterize the effect of the mutations, we tested them individually or in combination. Therefore, the alleles coding for the mutated glycerol kinase were cloned into the expression plasmid pPAL7 (Biorad®) and the plasmids obtained were transformed into E. coli strain BL21(DE3) star to purify each mutated protein and perform biochemical experiments. […]
(§2) The proteins were purified from the crude cell-extract by affinity on a Profinity column (BIORAD, Bio-Scale Mini Profinity exact cartridge 5 ml) according to the protocol recommended by the manufacturer. […] Protein concentration was measured using the Bradford protein assay.
(§3) Determination of kinetic parameters of GlpK wild type and mutants Glycerol kinase activity (GLPK) that catalyses the following reaction: Glycerol+ATP=>Glycerol-3-Phosphate+ADP, was determined by measuring the ADP appearance by enzymatic coupling to NADH oxidation. […] The oxidation of NADH was monitored at 30° C. by absorbance at 340 nm on a spectrophotometer (λ340=6290 M^−1 cm^−1).
(§4) One unit of enzyme activity was defined as the amount of enzyme catalyzing the decrease of 1 μmol of NADH per min. Kinetic parameters were determined with Sigmaplot by fitting to the Michaelis-Menten equation.

For data set [2], the target named is T2, Clostridium acetobutylicum glycerol kinase GlpK variant GlpK*(H22Y/A347T/V466M), SEQ ID NO: 13 (Clostridium acetobutylicum, UniProt Q97JG4, A347T/H22Y/V466M).
T2 construct: made in house; host or cells: E. coli BL21(DE3) star
T2 sequence (Q97JG4 1-498 H22Y/A347T/V466M): T1 sequence (Q97JG4 1-498) with H22Y, A347T, V466M
Description: Glycerol kinase activity towards glycerol (ADP appearance coupled to NADH oxidation), H22Y/A347T/V466M. The note with it: pH 9, 30° C., 2 mM ATP, 0.01-50 mM glycerol.
Text: as §1, §2, §3, §4

Substrate in data set [3]: OCC(O)CO
Description: Glycerol kinase activity towards glycerol (ADP appearance coupled to NADH oxidation), wild type. The note with it: other: GlpK wt, pH 9, 30° C., 2 mM ATP, 0.01-50 mM glycerol.
Text: (§5) Three different point mutations were identified in glpK gene in the clone PD0557Vc05 leading to the mutant protein GlpK* with H22Y, A347T and V466M (table 2 above). In order to better characterize the effect of the mutations, we tested them individually or in combination. Therefore, the alleles coding for the mutated glycerol kinase were cloned into the expression plasmid pPAL7 (Biorad®) and the plasmids obtained were transformed into E. coli strain BL21(DE3) star to purify each mutated protein and perform biochemical experiments.
(§6) Cultures of the seven strains 1 to 7 for the overproduction of the proteins were realized in a 2 L Erlenmeyer flask, using LB broth (Bertani, 1951) that was supplemented with 5 g/L glucose and 100 mg/L of ampicillin. An overnight culture was used to inoculate a 500 mL culture to an OD600 nm of about 0.15. The culture was first kept on a shaker at 37° C. and 200 rpm until OD600 nm was about 0.5 and then the culture was moved on a second shaker at 25° C. and 200 rpm until OD600 nm was 0.6-0.8 (about one hour), before induction with 500 μM IPTG. The culture was kept at 25° C. and 200 rpm until OD600 nm was around 4, and then it was stopped. Cells were centrifuged at 7000 rpm, 5 minutes at 4° C., and then stored at −20° C. This protocol was the same for strains 1 to 7.
(§7) For each strain, about 250 mg of E. coli biomass was suspended in 40 ml of 100 mM potassium phosphate pH 7.6, and a protease inhibitor cocktail. The cells suspension (15 ml per conical tube) was sonicated on ice (Bandelin sonoplus, 70 w) in a 50 ml conical tube during 8 cycles of 30 sec with 30 sec intervals. After sonication, cells were incubated for 30 min at room temperature with 5 mM MgCl2 and 1 UI/ml of DNaseI. Cells debris were removed by centrifugation at 12000 g for 30 min at 4° C.
(§8) The proteins were purified from the crude cell-extract by affinity on a Profinity column (BIORAD, Bio-Scale Mini Profinity exact cartridge 5 ml) according to the protocol recommended by the manufacturer. The crude extract was loaded on a 5 ml Profinity exact cartridge equilibrated with 100 mM potassium phosphate pH 7.6. […] Protein concentration was measured using the Bradford protein assay.
as §3, §4

Substrate in data set [4]: OCC(O)CO
The data set can be described thus: Glycerol kinase activity towards glycerol (ADP appearance coupled to NADH oxidation), H22Y/A347T/V466M. To be noted: other: GlpK* (H22Y/A347T/V466M), pH 9, 30° C., 2 mM ATP, 0.01-50 mM glycerol.
Text: as §5, §6, §7, §8, §3, §4

Substrate in data set [5]: OCC(O)CO
Description: Glycerol kinase activity towards glycerol (ADP appearance coupled to NADH oxidation), H22Y/A347T. To be noted: other: GlpK* (H22Y/A347T), pH 9, 30° C., 2 mM ATP, 0.01-50 mM glycerol.
Text: as §5, §6, §7, §8, §3, §4

Substrate in data set [6]: OCC(O)CO
Description: Glycerol kinase activity towards glycerol (ADP appearance coupled to NADH oxidation), H22Y. To be noted: other: GlpK* H22Y, pH 9, 30° C., 2 mM ATP, 0.01-50 mM glycerol.
Text: as §5, §6, §7, §8, §3, §4

Substrate in data set [7]: OCC(O)CO
The data set can be described thus: Glycerol kinase activity towards glycerol (ADP appearance coupled to NADH oxidation), A347T. To be noted: other: GlpK* A347T, pH 9, 30° C., 2 mM ATP, 0.01-50 mM glycerol.
Text: as §5, §6, §7, §8, §3, §4

Substrate in data set [8]: OCC(O)CO
The data set can be described thus: Glycerol kinase activity towards glycerol (ADP appearance coupled to NADH oxidation), A347T/V466M. The note with it: other: GlpK* (A347T/V466M), pH 9, 30° C., 2 mM ATP, 0.01-50 mM glycerol.
Text: as §5, §6, §7, §8, §3, §4

Substrate in data set [9]: OCC(O)CO
Description: Glycerol kinase activity towards glycerol (ADP appearance coupled to NADH oxidation), V466M. The note with it: other: GlpK* V466M, pH 9, 30° C., 2 mM ATP, 0.01-50 mM glycerol.
Text: as §5, §6, §7, §8, §3, §4

Positions count from the first letter of the chain named. Numbers in names are those of the source.

In the case of `OCC(O)CO` [glycerol], the Kcat/km in data set [1] stood at 1.52e+06 M⁻¹ s⁻¹; in [2], 33900 M⁻¹ s⁻¹.

B1: Clostridium acetobutylicum glycerol kinase GlpK wt (glpK, CA_C1321, Uniprot Q97JG4), SEQ ID NO: 1 (Clostridium acetobutylicum ATCC 824) (protein)
chain: T1 sequence (Q97JG4 1-498)
notes: GlpK wt; Q97JG4; made in house; host or cells: E. coli BL21(DE3) star
Take B1: in data set [3], the Michaelis-Menten constant (Km) was 54 ± 1 µM, the Vmax is recorded as 87734 ± 499 nmol/min/mg, the catalytic constant (kcat) worked out at 82.22 ± 0.467 s⁻¹ and the kcat/Km was 1.52e+06 ± 53000 M⁻¹ s⁻¹.

B2: Clostridium acetobutylicum glycerol kinase GlpK variant GlpK*(H22Y/A347T/V466M), SEQ ID NO: 13 (Clostridium acetobutylicum ATCC 824; A347T/H22Y/V466M) (protein)
chain: T1 sequence (Q97JG4 1-498) with H22Y, A347T, V466M
notes: GlpK*(H22Y/); made in house; host or cells: E. coli BL21(DE3) star
Consider B2, for which, in data set [4], the Michaelis-Menten constant (Km) stood at 39 ± 2 µM, the maximum rate (Vmax) is given as 1404 ± 13 nmol/min/mg, the catalytic constant (kcat) was 1.32 ± 0.012 s⁻¹ and the kcat/Km is 33900 ± 2300 M⁻¹ s⁻¹.

B3: Clostridium acetobutylicum glycerol kinase GlpK variant GlpK*(H22Y/A347T), SEQ ID NO: 9 (Clostridium acetobutylicum ATCC 824; A347T/H22Y) (protein)
chain: T1 sequence (Q97JG4 1-498) with H22Y, A347T
notes: as for B2
As to B3, in data set [5], the Michaelis-Menten constant (Km) worked out at 620 ± 50 µM, the Vmax is 9784 ± 195 nmol/min/mg, the catalytic constant (kcat) was 9.08 ± 0.183 s⁻¹ and the specificity constant (kcat/Km) was 14700 ± 1500 M⁻¹ s⁻¹.

B4: Clostridium acetobutylicum glycerol kinase GlpK variant GlpK*(H22Y), SEQ ID NO: 5 (Clostridium acetobutylicum ATCC 824; H22Y) (protein)
chain: T1 sequence (Q97JG4 1-498) with H22Y
notes: GlpK*(H22Y); made in house; host or cells: E. coli BL21(DE3) star
B4: in data set [6], the Michaelis-Menten constant (Km) stood at 70 ± 4 µM, the Vmax was 91725 ± 1186 nmol/min/mg, the kcat worked out at 85.97 ± 1.12 s⁻¹ and the kcat/Km turned out to be 1.229e+06 ± 93000 M⁻¹ s⁻¹.

B5: Clostridium acetobutylicum glycerol kinase GlpK variant GlpK*(A347T), SEQ ID NO: 3 (Clostridium acetobutylicum ATCC 824; A347T) (protein)
chain: T1 sequence (Q97JG4 1-498) with A347T
notes: GlpK*(A347T); made in house; host or cells: E. coli BL21(DE3) star
B5: in data set [7], the Km was 260 ± 31 µM, the maximum rate (Vmax) is listed as 6977 ± 155 nmol/min/mg, the kcat is 6.538 ± 0.145 s⁻¹ and the kcat/Km was 24900 ± 3500 M⁻¹ s⁻¹.

B6: Clostridium acetobutylicum glycerol kinase GlpK variant GlpK*(A347T/V466M), SEQ ID NO: 11 (Clostridium acetobutylicum ATCC 824; A347T/V466M) (protein)
chain: T1 sequence (Q97JG4 1-498) with A347T, V466M
notes: GlpK*(A347T/); made in house; host or cells: E. coli BL21(DE3) star
B6: in data set [8], the Km is 480 ± 48 µM, the Vmax came to 6267 ± 175 nmol/min/mg, the catalytic constant (kcat) is 5.873 ± 0.163 s⁻¹ and the kcat/Km was determined as 12310 ± 1600 M⁻¹ s⁻¹.

B7: Clostridium acetobutylicum glycerol kinase GlpK variant GlpK*(V466M), SEQ ID NO: 7 (Clostridium acetobutylicum ATCC 824; V466M) (protein)
chain: T1 sequence (Q97JG4 1-498) with V466M
notes: GlpK*(V466M); made in house; host or cells: E. coli BL21(DE3) star
Consider B7, for which, in data set [9], the Km is 58 ± 3 µM, the Vmax worked out at 60399 ± 537 nmol/min/mg, the turnover number (kcat) came to 56.6 ± 0.5 s⁻¹ and the catalytic efficiency (kcat/Km) was found to be 973000 ± 52000 M⁻¹ s⁻¹.

Source of the values: US11814663B2, “Microorganisms with improved 1,3-propanediol and butyric acid production” (METABOLIC EXPLORER, priority 2018, dated 2023).
